From article PMC8599806

Target: RECQL (UniProt P46063)
Experiment: ID3 co-IP, Western blot
Conditions: reference: wild type ID3; sites S65

binding against the reference: lost
Substance: ID3 (from UniProt Q02535) S65A
